This passage reports Kd results from article PMC12138080 (Acta Pharmaceutica Sinica. B, 2025).

This assay has as its target T1, Human GRK2 protein (His Tag) (human, UniProt P25098 1-689).
T1 sequence: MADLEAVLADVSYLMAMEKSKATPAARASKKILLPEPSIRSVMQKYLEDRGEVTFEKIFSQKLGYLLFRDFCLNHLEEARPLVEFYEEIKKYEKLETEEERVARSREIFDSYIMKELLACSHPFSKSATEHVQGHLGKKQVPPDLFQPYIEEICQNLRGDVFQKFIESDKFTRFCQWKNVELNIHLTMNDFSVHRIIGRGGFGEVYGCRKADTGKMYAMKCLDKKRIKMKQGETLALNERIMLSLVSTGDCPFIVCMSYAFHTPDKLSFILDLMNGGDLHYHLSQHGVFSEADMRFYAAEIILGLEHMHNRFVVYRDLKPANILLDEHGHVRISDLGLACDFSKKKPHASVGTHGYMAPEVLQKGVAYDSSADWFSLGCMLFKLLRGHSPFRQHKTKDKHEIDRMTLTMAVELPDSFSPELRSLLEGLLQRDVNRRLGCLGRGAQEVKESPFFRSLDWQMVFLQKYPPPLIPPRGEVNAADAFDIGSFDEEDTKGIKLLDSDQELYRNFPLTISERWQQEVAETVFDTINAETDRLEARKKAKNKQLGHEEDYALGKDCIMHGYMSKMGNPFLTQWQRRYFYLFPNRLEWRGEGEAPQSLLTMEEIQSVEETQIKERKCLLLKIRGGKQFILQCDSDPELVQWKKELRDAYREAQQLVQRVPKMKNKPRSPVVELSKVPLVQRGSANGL
Description: SPR.

As usually defined, the Kd is the concentration at which binding is half-saturated.

B1: Human TRAF2 protein (His Tag) (natural protein)
chain: MAAASVTPPGSLELLQPGFSKTLLGTKLEAKYLCSACRNVLRRPFQAQCGHRYCSFCLASILSSGPQNCAACVHEGIYEEGISILESSSAFPDNAARREVESLPAVCPSDGCTWKGTLKEYESCHEGRCPLMLTECPACKGLVRLGEKERHLEHECPERSLSCRHCRAPCCGADVKAHHEVCPKFPLTCDGCGKKKIPREKFQDHVKTCGKCRVPCRFHAIGCLETVEGEKQQEHEVQWLREHLAMLLSSVLEAKPLLGDQSHAGSELLQRCESLEKKTATFENIVCVLNREVERVAMTAEACSRQHRLDQDKIEALSSKVQQLERSIGLKDLAMADLEQKVLEMEASTYDGVFIWKISDFARKRQEAVAGRIPAIFSPAFYTSRYGYKMCLRIYLNGDGTGRGTHLSLFFVVMKGPNDALLRWPFNQKVTLMLLDQNNREHVIDAFRPDVTSSSFQRPVNDMNIASGCPLFCPVSKMEAKNSYVRDDAIFIKAIVDLTGL
The molecule B1 showed a Kd of 31.2 nM.
